From publication PMC3178605, “No Interaction of Barrier-to-Autointegration Factor (BAF) with HIV-1 MA, Cone-Rod Homeobox (Crx) or MAN1-C in Absence of DNA” (PLoS ONE, 2011)
Where no end group is shown, it is not given here.

How the values were obtained:
[1] = biological target: T1, Barrier-to-autointegration factor (BAF), human, unlabeled (human, UniProt O75531 1-89); assay: NMR titration; 1H-15N HSQC of 50 µM 15N-labeled LEM domain without and with 200 µM unlabeled BAF2; 25 mM potassium phosphate pH 6.5, 200 mM NaCl, 2 mM 2-mercaptoethanol, 27°C; settings: both partners purified
T1 construct: Barrier-to-autointegration factor (BAF/BANF1), human; Used unlabeled in the NMR experiments; also called BANF1; BAF2 (the dimer); source: cloned and purified as described [12]
T1 sequence (looked up): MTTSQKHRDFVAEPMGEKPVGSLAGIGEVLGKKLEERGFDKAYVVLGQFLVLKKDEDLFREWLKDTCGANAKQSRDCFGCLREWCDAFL

MAN1-C = biological target: T2, MAN1-C (UniProt Q9Y2U8 650-911); assay: NMR (1H-15N HSQC); 150 mM NaCl?; NMR: 25 mM potassium phosphate pH 6.5, 2 mM 2-mercaptoethanol, 95% H2O/5% D2O, 200 mM NaCl (Crx samples) or 150 mM NaCl (MAN1-C samples); salt for MA and temperature not given. The pull-down used undefined sonicated salmon sperm DNA (not listed); settings: protein: recombinant; tags: His6-thioredoxin removed by thrombin; blunt
T2 sequence: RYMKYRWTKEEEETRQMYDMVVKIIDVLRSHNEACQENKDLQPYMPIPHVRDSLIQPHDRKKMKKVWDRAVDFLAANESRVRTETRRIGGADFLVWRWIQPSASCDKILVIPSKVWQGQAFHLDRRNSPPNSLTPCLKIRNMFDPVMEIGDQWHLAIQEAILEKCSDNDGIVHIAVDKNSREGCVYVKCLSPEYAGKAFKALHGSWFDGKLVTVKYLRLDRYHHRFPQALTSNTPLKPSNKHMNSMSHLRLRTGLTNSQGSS

B1: LEM domain of MAN1 (residues 1-52), 15N-labeled (domain or fragment, UniProt Q9Y2U8 1-52, looked up)
chain: MAAAAASAPQQLSDEELFSQLRRYGLSPGPVTESTRPVYLKKLKKLREEEQQ
modifications: also: 15N-labeled
notes: MAN1 (inner nuclear membrane protein), LEM domain, residues 1-52; Uniformly 15N-labeled for NMR; also called MAN1 LEM domain; MAN-1 LEM domain; source: cloned and purified as described [12]
binding result [1]: binds

B2: 16 mer DNA duplex (dsDNA)
DNA 1: CCAGCACAAACACCTG
DNA 2: CAGGTGTTTGTGCTGG
binding result (MAN1-C): binds

B3: LEM domain of Emerin (residues 1-47), 15N-labeled (domain or fragment, UniProt P50402 1-47, looked up)
chain: MDNYADLSDTELTTLLRRYNIPHGPVVGSTRRLYEKKIFEYETQRRR
modifications: also: 15N-labeled
notes: Emerin, LEM domain, residues 1-47; Uniformly 15N-labeled for NMR; also called Emerin LEM domain; source: cloned and purified as described [12]
binding result [1]: binds
